Results: paper PMC11001860, “The assembly platform FimD is required to obtain the most stable quaternary structure of type 1 pili” (Nature Communications, 2024)

T1: FimChis (Escherichia coli, UniProt P31697 37-241)
T1 construct: FimC, periplasmic chaperone of type 1 pili, Escherichia coli; source: E. coli BL21(DE3) with pFimChis-cyt, purified (SP-Sepharose, Superdex 75 SEC)
T1 sequence (looked up): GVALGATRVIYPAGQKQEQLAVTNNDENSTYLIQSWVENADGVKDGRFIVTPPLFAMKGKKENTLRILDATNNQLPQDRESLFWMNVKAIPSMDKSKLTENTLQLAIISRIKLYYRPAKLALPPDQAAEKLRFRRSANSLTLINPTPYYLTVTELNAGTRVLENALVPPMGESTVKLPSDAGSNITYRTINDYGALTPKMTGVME

T2: FimC, periplasmic chaperone of type 1 pili (Escherichia coli, UniProt P31697 37-241)
T2 construct: FimC, periplasmic chaperone of type 1 pili, Escherichia coli; source: E. coli BL21(DE3) with pFimC-cyt, purified (SP-Sepharose, Superdex 75 SEC)
T2 sequence: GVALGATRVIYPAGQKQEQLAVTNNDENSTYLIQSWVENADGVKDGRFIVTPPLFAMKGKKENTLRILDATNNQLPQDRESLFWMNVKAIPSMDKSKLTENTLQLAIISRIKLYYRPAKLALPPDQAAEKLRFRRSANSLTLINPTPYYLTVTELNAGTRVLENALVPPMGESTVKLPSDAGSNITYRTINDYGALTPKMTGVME


Key:
[1] = target: the molecule itself; assay: negative-stain EM; P pilus rods assembled in vitro from 50 µM PapA-PapDhis complex, 20 mM Tris-HCl pH 8.0, 50 mM NaCl, 37 °C, 7 days
[2] = target: the molecule itself; assay: cryo-EM structure; in vitro-assembled type 1 pilus rods, helical reconstruction, 2.69 Å; sample diluted to 100 µM in ddH2O
FimChis = target: T1, FimChis; assay: SEC; complex formed by rapid dilution of unfolded, disulfide-intact FimA into FimC (15 min, 23 °C), then Sephadex G25, Source 30S cation exchange and Superdex 75 in 20 mM Tris-HCl pH 8.0, 50 mM NaCl; conditions: both partners purified
[3] = target: T2, FimC, periplasmic chaperone of type 1 …; assay: as above; conditions: both partners purified

Binder	binding result [1]	binding result [2]	binding result (FimChis)	binding result [3]
PapA, main structural subunit of the P pilus rod (co-expressed with PapDhis) (natural protein, PapA, main structural subunit of the P pilus rod, Escherichia coli; also called in vitro-assembled P pili; source: E. coli HM125 with PapDA (pTRC99a), periplasmic extract; purified as a complex with PapDhis (HisTrap, Source 30S, SEC)) APTIPQGQGKVTFNGTVVDAPCSISQKSADQSIDFGQLSKSFLEAGGVSKPMDLDIELVNCDITAFKGGNGAKKGTVKLAFTGPIVNGHSDELDTNGGTGTAIVVQGAGKNVVFDGSEGDANTLKDGENVLHYTAVVKKSSAVGAAVTEGAFSAVANFNLTYQ	binds	–	–	–
FimA, main structural subunit of the type 1 pilus rod (recombinant, assembled in vitro) (natural protein, FimA, main structural subunit of the type 1 pilus rod of Escherichia coli; printed residue numbers run to Q159; The same FimA was used for rods assembled from FimA monomers, from FimA-FimC complexes and with FimD (FimD-cat); also called FimA monomers; self-complemented FimA) AATTVNGGTVHFKGEVVNAACAVDAGSVDQTVQLGQVRTASLAQEGATSSAVGFNIQLNDCDTNVASKAAVAFLGTAIDAGHTNVLALQSSAAGSATNVGVQILDRTGAALTLDGATFSSETTLNNGTNTIPFQARYFATGAATPGAANADATFKVQYQ	–	binds	binds	binds
